The text below walks through data of PMC7318607.

The data set deals with GST-OGG1 wt (UniProt O15527 1-345). In words: EMSA.
GST-OGG1 wt, sequence (O15527 whole entry): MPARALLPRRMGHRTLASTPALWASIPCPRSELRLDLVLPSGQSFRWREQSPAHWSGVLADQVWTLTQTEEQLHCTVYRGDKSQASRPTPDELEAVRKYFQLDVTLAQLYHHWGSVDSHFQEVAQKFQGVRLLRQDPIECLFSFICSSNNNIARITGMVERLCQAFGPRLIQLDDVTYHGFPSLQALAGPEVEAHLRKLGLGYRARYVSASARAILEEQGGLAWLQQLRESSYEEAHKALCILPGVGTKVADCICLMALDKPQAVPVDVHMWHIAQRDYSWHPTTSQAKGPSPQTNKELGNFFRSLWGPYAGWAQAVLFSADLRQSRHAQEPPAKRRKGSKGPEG

B1: G2 probe (8-oxoG) (dsDNA)
DNA 1: CGATGTCTGGAAAAGCCCGGGGACCAGGGAA
DNA 2: TTCCCTGGTCCCCGGGCTTTTCCAGACATCG
modifications: 8-oxoG at position 27 of strand 1 (antisense)
Take B1: the binding result was “binds”.

B2: Cy5 probe (8-oxoG) (dsDNA)
DNA 1: AGAGAAGAAGAAGAAGAGATGGGTTATTCGAACTAGC
DNA 2: GCTAGTTCGAATAACCCATCTCTTCTTCTTCTTCTCT
modifications: 8-oxoG at position 16 of strand 1
For the molecule B2, the binding result was “binds”.
